From PMC7719173 come the findings set out here.

This assay concerns the target human TRAPPII complex (TRAPPC1, TRAPPC2, TRAPPC2L, TRAPPC3, TRAPPC4, TRAPPC5, TRAPPC6A, TRAPPC9, TRAPPC10) (human) (UniProt Q9Y5R8).

The substance “Rab11 (from UniProt P62491 1-216) (natural protein)” returned a catalytic efficiency (kcat/Km) of TRAPPII-catalysed release of Mant-GDP from 4 µM Rab-His6 in solution, TRAPPII 19–300 nM of 2900 M⁻¹ s⁻¹.
